Common to all, as to assay: cell-based or functional assay
In test [1] the target is cortactin (yeast 2-hybrid bait).
Test [2] deals with pAS2 vector (empty bait control).
Test [3] has as its target T1, AR-DBD + LBD (yeast 2-hybrid bait) (UniProt P10275 506-920).
T1 sequence (looked up): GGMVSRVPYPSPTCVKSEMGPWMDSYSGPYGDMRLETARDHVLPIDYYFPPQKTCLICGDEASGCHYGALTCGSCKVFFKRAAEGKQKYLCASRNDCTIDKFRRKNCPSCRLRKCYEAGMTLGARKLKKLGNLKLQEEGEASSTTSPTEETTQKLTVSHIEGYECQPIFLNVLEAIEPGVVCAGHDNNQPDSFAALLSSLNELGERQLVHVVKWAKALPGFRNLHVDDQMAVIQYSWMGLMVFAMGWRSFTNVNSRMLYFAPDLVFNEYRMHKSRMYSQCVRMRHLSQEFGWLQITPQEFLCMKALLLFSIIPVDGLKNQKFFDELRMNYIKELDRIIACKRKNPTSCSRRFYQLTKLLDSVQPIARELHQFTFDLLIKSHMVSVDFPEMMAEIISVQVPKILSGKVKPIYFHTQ

The target of test [4] is T2, AR-AT (yeast 2-hybrid bait) (UniProt P10275 1-505).
T2 sequence (looked up): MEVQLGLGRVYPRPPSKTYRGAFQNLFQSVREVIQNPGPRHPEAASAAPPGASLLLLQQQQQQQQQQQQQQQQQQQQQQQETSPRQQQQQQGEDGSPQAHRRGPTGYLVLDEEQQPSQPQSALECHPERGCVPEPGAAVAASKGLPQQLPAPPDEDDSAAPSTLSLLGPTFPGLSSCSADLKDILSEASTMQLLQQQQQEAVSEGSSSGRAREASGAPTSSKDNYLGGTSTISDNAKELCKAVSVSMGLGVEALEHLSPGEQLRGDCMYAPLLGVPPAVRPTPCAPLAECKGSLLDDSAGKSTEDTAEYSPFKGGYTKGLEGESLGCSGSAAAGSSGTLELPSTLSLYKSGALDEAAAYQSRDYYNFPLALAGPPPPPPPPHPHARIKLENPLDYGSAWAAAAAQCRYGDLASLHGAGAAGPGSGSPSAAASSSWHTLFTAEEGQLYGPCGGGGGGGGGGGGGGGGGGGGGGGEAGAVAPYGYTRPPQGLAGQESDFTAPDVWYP

For test [5], the target named is T3, AR-DBD (yeast 2-hybrid bait) (UniProt P10275 506-636).
T3 sequence (looked up): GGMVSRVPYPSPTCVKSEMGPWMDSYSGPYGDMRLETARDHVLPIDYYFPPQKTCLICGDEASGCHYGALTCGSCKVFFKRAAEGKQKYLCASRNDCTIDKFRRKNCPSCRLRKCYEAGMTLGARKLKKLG

B1: pACT2-PAK (yeast 2-hybrid prey) (other, not shown: large carriers)
chain: LKRRLFRSMFLSTAATAPPSSSKPGPPPQSKPNSSFRPPQKDNPPSLVAKAQSLPSDQPVGTFSPLTTSDTSSPQKSLRTAPATGQLPGRSSPAGSPRTWHAQISTSNLYLPQDPTVAKGALAGEDTGVVTHEQFKAALRMVVDQGDPRLLLDSYVKIGEGSTGIVCLAREKHSGRQVAVKMMDLRKQQRRELLFNEVVIMRDYQHFNVVEMYKNYLVGEELWVLMEFLQGGALTDIVSQVRLNEEQIATVCEAVLQALAYLHAQGVIHRDIKSDSILLTLDGRVKLSDFGFCAQISKDVPKRKSLVGTPYWMAPEVISRSLYATEVDIWSLGIMVIEMVDGEPPYFSDSPVQAMKRLRDSPPPKLKNSHKVSPVLRDFLERMLVRDPQERATAQELLDHPFLLQTGLPECLVPLIQLYRKQTSTC
Turning to B1, the “Fold induction of β-galactosidase by DHT (yeast 2-hybrid)” value turned out to be 1 fold in test [1]; 1.2 fold in test [2]; 27 fold in test [3]; 1.1 fold in test [4]; 0.9 fold in test [5].

B2: pGAD424-GRIP1 (yeast 2-hybrid prey, GRIP1 amino acids 730-1121) (other, UniProt Q61026 730-1121, looked up, not shown: large carriers)
chain: VKQEPASPKKKENALLRYLLDKDDTKDIGLPEITPKLERLDSKTDPASNTKLIAMKTVKEEVSFEPSDQPGSELDNLEEILDDLQNSQLPQLFPDTRPGAPTGSVDKQAIINDLMQLTADSSPVPPAGAQKAALRMSQSTFNNPRPGQLGRLLPNQNLPLDITLQSPTGAGPFPPIRNSSPYSVIPQPGMMGNQGMLGSQGNLGNNSTGMIGSSTSRPSMPSGEWAPQSPAVRVTCAATTGAMNRPVQGGMIRNPTASIPMRANSQPGQRQMLQSQVMNIGPSELEMNMGGPQYNQQQAPPNQTAPWPESILPIDQASFASQNRQPFGSSPDDLLCPHPAAESPSDEGALLDQLYLALRNFDGLEEIDRALGIPELVSQSQAVDAEQFSSQE
In the case of B2, the “Fold induction of β-galactosidase by DHT (yeast 2-hybrid)” value in test [3] was found to be 5.7 fold.

The record behind these values is US20030166623A1 (BETH ISRAEL DEACONESS MEDICAL CENTER, published 2003).
